Measured values reported in a protein production outcome set (Wang et al. 2014).

Assay: label from the status in PepcDB records

MSFNTIIDWNSCTAEQQRQLLMRPAISASESITRTVNDILDNVKARGDEALREYSAKFDKTTVTALKVSAEEIAAASERLSDELKQAMAVAVKNIETFHTAQKLPPVDVETQPGVRCQQVTRPVASVGLYIPGGSAPLFSTVLMLATPASIAGCKKVVLCSPPPIADEILYAAQLCGVQDVFNVGGAQAIAALAFGTESVPKVDKIFGPGNAFVTEAKRQVSQRLDGAAIDMPAGPSEVLVIADSGATPDFVASDLLSQAEHGPDSQVILLTPAADMARRVAEAVERQLAELPRAETARQALNASRLIVTKDLAQCVEISNQYGPEHLIIQTRNARELVDSITSAGSVFLGDWSPESAGDYASGTNHVLPTYGYTATCSSLGLADFQKRMTVQELSKEGFSALASTIETLAAAERLTAHKNAVTLRVNALKEQA
protein production: not failed

MEEASEGGGNDRVRNLQSEVEGVKNIMTQNVERILARGENLEHLRNKTEDLEATSEHFKTTSQKVARKFWWKNVKMIVLICVIVFIIILFIVLFATGAFS
protein production: failed

RGLRRGTLRIGSFGPTSSMRLLPALLARYRQQYPGIEVHIDEGPDEQVLQWLLERRVDIAFAVLPDPRFVCCPLVEDQMVAVLPAGHRLADRPRVTLAELCGEPFALSGAGSAELVMRLFQAARLQPNIRYRCGQLLSTLDTVARG
protein production: failed

MVWDRATPFVIDLNVGAEDIDGLGHANNAVYVSWLERCAWRHSQFLGLDLTEYQRLDRAMAVVRHEIDYLASAYESDELQLATWITDWDRRLKMTRCFQLKRPADNLTLLRAQTTFVCIELSSGRPKRMPAEFIEGYGAAIPLEHHHHHH
protein production: failed

MTMTLHTKASGMALLHQIQGNELEPLNRPQLKIPLERPLGEVYLDSSKPAVYNYPEGAAYEFNAAAAANAQVYGQTGLPYGPGSEAAAFGSNGLGGFPPLNSVSPSPLMLLHPPPQLSPFLQPHGQQVPYYLENEPSGYTVREAGPPAFYRPNSDNRRQGGRERLASTNDKGSMAMESAKETRYCAVCNDYASGYHYGVWSCEGCKAFFKRSIQGHNDYMCPATNQCTIDKNRRKSCQACRLRKCYEVGMMKGGIRKDRRGGRMLKHKRQRDDGEGRGEVGSAGDMRAANLWPSPLMIKRSKKNSLALSLTADQMVSALLDAEPPILYSEYDPTRPFSEASMMGLLTNLADRELVHMINWAKRVPGFVDLTLHDQVHLLECAWLEILMIGLVWRSMEHPVKLLFAPNLLLDRNQGKCVEGMVEIFDMLLATSSRFRMMNLQGEEFVCLKSIILLNSGVYTFLSSTLKSLEEKDHIHRVLDKITDTLIHLMAKAGLTLQQQHQRLAQLLLILSHIRHMSNKGMEHLYSMKCKNVVPLYDLLLEMLDAHRLHAPTSRGGASVEETDQSHLATAGSTSSHSLQKYYITGEAEGFPATV
protein production: not failed

SGCGGSRADAIEPRYYESWTRETESTWLTYTDSDAPPSAAAPDSGPEAGGLHSGMLEDGLPSNGVPRSTAPGGIPNPEKKTNCETQCPNPQSLSSGPLTQKQNGLQTTEAKRDAKRMPAKEVTINVTDSIQQMDRSRRITKNCVN
protein production: failed

MSLHAAAVGPSVLPDLREQVEQIIAEARRQGASACEVAVSLEQGLSTSVRQGEVETVEFNRDQGFGITLYAGQRKGSASTSATGEAAIRETVAAALAIARHTSEDECAGLADAALMARELPELDLYHPWSLSPEQAVERALACEAAAFAADKRVTKADGTTLNTHQGCRVYGNSHGFIGGYASTRHSLSCVMIAEGEGQMQRDYWYDVNRRGEALASAESIGRRAAERAASRLGARPVQTAEVPVLFAPEIAVGLFGHFLGAISGGSLYRKSSFLEGALGQRLFPEWLSIDERPHLVGALGSASFDSDGLATYAKPFVENGELVSYVLGTYSGRKLGLPSTANAGGVHNLFVSHGDEDQAALIRRMERGLLVTELMGQGVNLVTGDYSRGAAGYWVENGEIQFPVQEVTIAANLRDLFRRIVAVGKDIERRGNLHTGSVLVESMMVAGR
protein production: not failed

MKEKENIQKIIIAMIQTVVVYFSASLTLTLITPNFKSNKDLLFVLLIHYIVFYLSDFYRDFWSRGYLEEFKMVLKYSFYYIFISSSLFFIFKNSFTTTRLSFFTFIAMNSILLYLLNSFLKYYRKYSYAKFSRDTKVVLITNKDSLSKMTFRNKYDHNYIAVCILDSSEKDCYDLKHNSLRIINKDALTSELTCLTVDQAFINIPIELFGKYQIQDIINDIEAMGVIVNVNVEALSFDNIGEKRIQTFEGYSVITYSMKFYKYSHLIAKRFLDITGAIIGLLICGIVAIFLVPQIRKDGGPAIFSQNRVGRNGRIFRFYKFRSMRVDAEQIKKDLLVHNQMTGLMFKLDDDPRITKIGKFIRKTSIDELPQFYNVLKGDMSLVGTRPPTVDEYEKYNSTQKRRLSFKPGITGLWQISGRNNITDFDEIVKLDVQYINEWSIWSDIKIILLTLKVVLLGTGAK
protein production: failed

KLYGSIFTGASKFRCKDCSAAYDTLVELTVHMNETGHYRDDNHETDNNNPKRWSKPRKRSLLEMEGKEDAQKVLKCMYCGHSFESLQDLSVHMIKTKHYQKV
protein production: not failed

MDLPVMPPVKPMLAKSVAKIPPGMHYEAKWDGFRAIVYRDGDEVELGSRTGKPLTRYFPELVVAVRERLPERCVVDGEIVIARDGHLDFDALTERIHPADSRVRTLAERTPASLVAFDLLALDDASLLDVGLADRRALLVRALSGVTPPVHVAPATDDIEVARRWFEQYEGAGLDGVVAKPLDLRYRQDERAMYKIKHERTADVVVAGYRFHKSGPVVGSLLLGLYDDRGLLQHVGVSAAFTMKRRAELVAELEPLRMDDARGHPWAAWAEEAAHESARLPGAPSRWSGKKDLSWVPLRPERVVEVAYDHMENGARFRHTARFRRWRPDRTPESCTYAQLEEPVRYDLAEILGGPLEHHHHHH
protein production: failed

MSIYMIGLIRHSETKVFNKALIQGSLIAYIVFMLFAWGGEAIFSKYLNVRFEAFQIFGGLIFLVIGYRYVFQGADTIGEMRGAPEHLAGTIAMPFMIGPGTISAAVVTGIEMSIGAAALVIGFTMFLTCSILILMKFSHDHLRYKHAKYIDRYFDIVGRLSALLIGTIAVDMIINGVTGLIHKV
protein production: failed

MDHFSYRNTNKMVRTHVVVGSRPCCFSCAMEEKDPCVRKAWLELSLRDMHMIRDDTELALTLSFIWRYAMADPENPELPSLGVFECMTRLMKKGLEDVEWVMTGQNVYVPYYAAHIIGSYTMKKPDFATKAVESGVIAPLLELMRRKMSWVEQRVVVRALGHLASYETTFEAVAAYEDEVVRLAMEIAMTCVDVVYEEFVSVQEKEGRVRYHSDLLTRGLGGLEMEDRKAEEWASQLQCWSLHLLNCFAYKQKCISLICNKTFLKELSQMWGGLVNHTSPSGIGLIRILCYSKQGRRHVSGSREMILSLCNLSRSSDDWQYMGIDCLLLLLKDQATRYNVLEMSLFYLVDLVEVKALNVRKNLGDRITKVLLMHYCKTKKGCAYSHKAQKALKELWRNKVERRRRERKFMSKNQDFLRETSVVVYLIKQQANQLLHVGDIEGAIKCYTEAIGLCPLKLRRKRMNLYSERGECYLLLGDVDAAISDCTRALCLSEPVNSHGKSLWTRSRAYDIKGLSRESLMDCIMFVNGRCFRGNIPYYAAQMISKQMEATWLFEKARASKLGRMMLKEKFHLTGIFIFLYICMNISS
protein production: failed

MPGSRDILADLVAFDTVSRESNLALIDYVRDYLAGFGVDSELFFDADGRKANLYATIGPSDRGGVCLSGHTDVVPADGQAWSVPPFRLSERDGRLYGRGTADMKGYLACVLAAVPAFLAAPLRLPVHLAFSYDEEVGCLGVRSLLAALERRPHKPLLCIIGEPTELKPVLGHKGKLAMRCEVHGAACHSAYAPQGVNAIEYAARLIGRLGEIGARLAVPERHDRRFDPPYSTVQTGLIQGGRALNIVPAECRFDFEVRALPADDPRQVAEELRDYAESELLPRMRAVERSTDIRFTPLSAYPGLLTADDSQAAELIGLLSGSTDFSTVAFGTEGGLFHQAGIPAVICGPGSMDQGHKPDEFVSLAQLEACDALLARLAAW
protein production: failed

MEPAILIITLICGMLVSRIGLPPLIGYLVAGFVLFVMGIEKESMPLLQELANLGVTLLLFAIGLKLDIRSLFKAEVWAGSSVHLILSILVFVPILKILGLLGLSQLTSLGIEQLTLLAFALSFSSTVFAVKVLEDKGDMQSLYGRVAIGILIMQDIFAVLFLTISKGDVPSVWAFALLLLPLAKPLIYKAFDRVGHGELLVLFGLVMALVVGAWLFESLGLKPDLGALVIGILLAGHKKASELAKSLFYFKELFLVAFFLTIGLNGLPTVSDIVLAALLVLLVPLKILLFVYILTRFKLRSRTSMLGSFNLGNFSEFGLIVAAVATSKGWLPSHWLVIIAVALSFSFLLAAPLNATVGSIYQRFQLRLVRLEKRPLHPEDRPIAIGNPRFLILGMGRIGSGAYDELRARFDGEILGIEHKQDLVDLHRAKGRNVVQGDASDTDFWEKLDKAPNLELVLLAMPHHAGNLFAVEQLNKLNYQGKISAIVQYGEDAASLRNSGVHSVYNLYEAAGAGFVDHVVHELLPDSETKAGTEAQEGTQKQTSSLV
protein production: failed

MKMIETSLASASAALRDRVDEILAAATREDGCAPLSESFLNGLRRADDGHVHSCVMDSHDQVVGVAARDGDSAEVVVDPAFRRQGYGSFLIRHVVSQGVKNVWAHGDGAGAKAVAKALQLEQTRQLLVMAVEGDRLVESAQLQVPSGFRVLALNEAYESIPDIEQQWLRVNNEAFEWHPEQGGWDSARLAQARDTQWFRESDVLFLIDTAKRTVAGFHWTKRHGDLAEGADGEVYVVGLGSAYRRRGLGDLLIRMGLHHLEYEHARRVILYVEGDNESARRAYDALGFHVVESHVTYSPQSSS
protein production: failed

METTPVTSCTIIDATDRSIRQTLGETSTLARLIWVDAGLASPPLCSGLARCGRCRVRITEAAPAPHEDDREFFSAEDISAGWRLACRHAPAHGMVVHVPLPVMPHRHASRPKHPGPFRLAVDLGTTSLQWSLLAPDGTVAAQGSETNPQMGAGSDVMSRIAMARSDKGRGRLRELVLQALRRIVADVEGTPATADAVPPAGSGDEPTTACGYESRVEELCVAGNTAMTAILADESVEGLASAPYRLEMRGGTALALPGLPPAWIPPLPAPFVGGDLSAGYLAVLTDHAPAFPFVLADLGTNGEFVLALSPERTLVTSVALGPALEGIGLTFGTVAQRGAITSFTLTPGGLVPYVLDGGEADGISGTGYISLVHALLRAGLLDVDGRFIQSPSSPLAARMARSIVSHRGEPCLPLARGLYLAARDIEEILKVKAAFSLAFERLLATAQMPSHALSGIHLAGALGQHALPADLEGLGFIPPGSGGRTRAVGNTSLRGAELLLTSPPLRDTLNTWREGCTVVDLTAAPDFSAAFLRHMHFHFLEHHHHHH
protein production: failed

MTQRSLADIQFQTTLEGVTPAQLGGFFEGWPNPPTPETLWRILDRAAVFVLARTPDGQVIGFVNALSDGILAASIPLLEVQAGWRSLGLGSELMRRVLTELGDLYMVDLSCDDDVVPFYERLGLKRANAMFLRRYDNQAGIPAE
protein production: not failed

MQVHYYGGTAEAAGTSEETVETPTGLSVNQLLDHLRNLHPGLGRLLGVCTLFVDGSAVRGEQIVPARAQVEVLPPFAGG
protein production: failed

MGSGHILGTSRLPKETWMANAECFVLMLPLRECAGRCHVCLKTAYTMRHRLIECLSAYSPSFKTGRGCGCELDETYFPESFKGNHTKGSFTMPRHSRHRGKQVHRRGLSREQICVMTGVNDSNETFLQVSGRGILSRKRAMDVLRDRIASASVVATDKASAYVDVLAELEVDAHTAYDSKDPSEGTINRINTVHSLLDTFMKPFKGVSTKHLGTYLAWFKWCRTFMATDSGTAERTVARQLANGVCRSRIHDMFNVLPP
protein production: failed

RRLVTYVLVHGTHSAGAFWTPIARELGLRGHRVVMVDQPRHGAEAFVAESYQRQDLAAMAVEPSPLKGLGLDDYEARVAGIVRRAARNGPVVLVGHSLGGVSVSRVGEAVPHLLHHICYMAAFCPSRVLPTADACTAAPENANAVSPVELTVGDPDRLGVLRLNFRTGVSGELALLKEMICADYPDADFRRILAGMQTDEPVAAYAGRAVGRAGRWGRIPRTYLRFGRDRTIATALQDRVIAEADAATPGNGFRVHDFPEASHVGPLDPTPVADVLDRLA
protein production: failed
